This is an account of results in paper PMC4854488 (Biochemistry, 2016).

Series [1] concerns the target T1, oxalate decarboxylase (OxDC) (Bacillus subtilis, UniProt O34714, DEL162-162).
T1 construct: C-terminal His6 tag kept, expressed in E. coli BL21(DE3), Mn-containing (Co(II)-substituted for the crystal; model residues 6-382)
Kind of series: X-ray crystal structure, […] Å. The note with it: Co(II)-substituted ΔE162 variant; oxalate end-on (monodentate) on Co(II) in N-terminal domain; cocrystallised, well pH 9.5, 17 °C. The class given is binding.

Substrate in the series “purified protein”: O=C(O)C(=O)O
The series can be described thus: purified protein. The note with it: 25 °C.

Setting [2] is: decarboxylase activity, Mn enzyme (1.4 Mn/monomer), 100 mM citrate pH 4.2, 300 uM o-phenylenediamine, pH 4.2.
Where [3] appears, read: oxidase activity, Mn enzyme (1.4 Mn/monomer), 50 mM succinate pH 4.0, O2 co-substrate, pH 4.0.
[4] abbreviates: DDNS variant, decarboxylase activity, Mn enzyme (1.5 Mn/monomer), 100 mM citrate pH 4.2, 300 uM o-phenylenediamine, pH 4.2.
Setting [5] is: DENS variant, decarboxylase activity, Mn enzyme (1.6 Mn/monomer), 100 mM citrate pH 4.2, 300 uM o-phenylenediamine, pH 4.2.
Setting [6] is: DDSN variant, decarboxylase activity, Mn enzyme (1.5 Mn/monomer), 100 mM citrate pH 4.2, 300 uM o-phenylenediamine, pH 4.2.
Where [7] appears, read: DESN variant, decarboxylase activity, Mn enzyme (1.5 Mn/monomer), 100 mM citrate pH 4.2, 300 uM o-phenylenediamine, pH 4.2.
[8] abbreviates: DESN variant, oxidase activity, Mn enzyme (1.5 Mn/monomer), 50 mM succinate pH 4.0, O2 co-substrate, pH 4.0.
The mark [9] stands for this setting: ΔE162 variant, decarboxylase activity, Mn enzyme (1.3 Mn/monomer), 100 mM citrate pH 4.2, 300 uM o-phenylenediamine, pH 4.2.
Where [10] appears, read: ΔE162 variant, oxidase activity, Mn enzyme (1.3 Mn/monomer), 50 mM succinate pH 4.0, O2 co-substrate, pH 4.0.

Changes are numbered by the printed parent chain. Numbers in names are those of the source.

As to `O=C(O)C(=O)O` [oxalate], in series [1], the “X-ray crystal structure, 2.6 Å” value is “we observed an oxalate molecule bound within the N-terminal domain”.

B1: oxalate decarboxylase (OxDC) (Bacillus subtilis subsp. subtilis str. 168) (protein)
chain: MKKQNDIPQPIRGDKGATVKIPRNIERDRQNPDMLVPPETDHGTVSNMKFSFSDTHNRLEKGGYAREVTVRELPISENLASVNMRLKPGAIRELHWHKEAEWAYMIYGSARVTIVDEKGRSFIDDVGEGDLWYFPSGLPHSIQALEEGAEFLLVFDDGSFSENSTFQLTDWLAHTPKEVIAANFGVTKEEISNLPGKEKYIFENQLPGSLKDDIVEGPNGEVPYPFTYRLLEQEPIESEGGKVYIADSTNFKVSKTIASALVTVEPGAMRELHWHPNTHEWQYYISGKARMTVFASDGHARTFNYQAGDVGYVPFAMGHYVENIGDEPLVFLEIFKDDHYADVSLNQWLAMLPETFVQAHLDLGKDFTDVLSKEKHPVVKKKCSK
As a reminder, the Km is the substrate concentration at which the rate is half of its maximum. For orientation: kcat means the maximal rate divided by the concentration of active sites. In general, kcat/Km refers to the second-order rate constant that governs catalysis at low substrate concentration. As for B1, in the series “purified protein” (setting [2]), the Km turned out to be 8 ± 1 mM, the kcat was found to be 60 s⁻¹ and the kcat/Km was determined as 5700 M⁻¹ s⁻¹. Also, in the series “purified protein” (setting [3]), the Km worked out at 5.0 ± 0.2 mM, the kcat was found to be 0.13 s⁻¹ and the kcat/Km came out at 19 M⁻¹ s⁻¹.

B2: oxalate decarboxylase (OxDC) (Bacillus subtilis subsp. subtilis str. 168; E162D/S161D) (protein)
chain: B1 chain with S161D, E162D
For the molecule B2, in “purified protein” (setting [4]), the Km stood at 10 ± 2 mM, the kcat was determined as 45 s⁻¹ and the kcat/Km is 2900 M⁻¹ s⁻¹.

B3: oxalate decarboxylase (OxDC) (Bacillus subtilis subsp. subtilis str. 168; S161D) (protein)
chain: B1 chain with S161D
On to B3, for which, in the series “purified protein” (setting [5]), the Km is 10 ± 1 mM, the kcat came to 63 s⁻¹ and the kcat/Km was determined as 3900 M⁻¹ s⁻¹.

B4: oxalate decarboxylase (OxDC) (Bacillus subtilis subsp. subtilis str. 168; E162D/N163S/S161D/S164N) (protein)
chain: B1 chain with S161D, E162D, N163S, S164N
With B4, in the series “purified protein” (setting [6]), the Km was found to be 3 ± 1 mM, the kcat turned out to be 9 s⁻¹ and the kcat/Km was 2400 M⁻¹ s⁻¹.

B5: oxalate decarboxylase (OxDC) (Bacillus subtilis subsp. subtilis str. 168; N163S/S161D/S164N) (protein)
chain: B1 chain with S161D, N163S, S164N
In the case of B5, in the series “purified protein” (setting [7]), the Km came to 6 ± 1 mM, the kcat was 40 s⁻¹ and the kcat/Km came out at 4400 M⁻¹ s⁻¹. Also, in “purified protein” (setting [8]), the Km is reported as 11 ± 2 mM, the kcat came to 0.1 s⁻¹ and the kcat/Km was found to be 11 M⁻¹ s⁻¹.

B6: oxalate decarboxylase (OxDC) (Bacillus subtilis subsp. subtilis str. 168; DEL162-162) (protein)
chain: MKKQNDIPQPIRGDKGATVKIPRNIERDRQNPDMLVPPETDHGTVSNMKFSFSDTHNRLEKGGYAREVTVRELPISENLASVNMRLKPGAIRELHWHKEAEWAYMIYGSARVTIVDEKGRSFIDDVGEGDLWYFPSGLPHSIQALEEGAEFLLVFDDGSFSNSTFQLTDWLAHTPKEVIAANFGVTKEEISNLPGKEKYIFENQLPGSLKDDIVEGPNGEVPYPFTYRLLEQEPIESEGGKVYIADSTNFKVSKTIASALVTVEPGAMRELHWHPNTHEWQYYISGKARMTVFASDGHARTFNYQAGDVGYVPFAMGHYVENIGDEPLVFLEIFKDDHYADVSLNQWLAMLPETFVQAHLDLGKDFTDVLSKEKHPVVKKKCSK
On to B6, for which, in “purified protein” (setting [9]), the Km was determined as 1.6 ± 0.7 mM, the kcat turned out to be 0.01 s⁻¹ and the kcat/Km was found to be 5 M⁻¹ s⁻¹. In the series “purified protein” (setting [10]), the Km is reported as 3 ± 1 mM, the catalytic constant (kcat) worked out at 0.05 s⁻¹ and the kcat/Km came out at 14 M⁻¹ s⁻¹.
